# Assay results reported in PMC8537947, “Improved Radiolytic Stability of a ^68Ga-labelled Collagelin Analogue for the Imaging of Fibrosis” (Pharmaceuticals, 2021).
# Bridge positions count the residues as written; N and C are the ends. Square brackets hold non-standard residues; d marks the D form. Peptide text beside a SMILES is read from it. * marks the point of attachment. NOTA = O=C(O)CN1CCN(CC(=O)O)CCN(CC(=O)*)CC1; Nle = CCCC[C@H](N)C(=O)O; AEEA = NCCOCCOCC(=O)O
# Test: in vivo
# Set-up: species or system Sprague-Dawley rats
# Conditions: Sprague-Dawley, rat, iv, total radioactivity
# Method: Sixteen male (n = 10; 363.3 ± 19.6 g) and female (n = 6; 199.2 ± 5.5 g) Sprague–Dawley rats were used for ex vivo organ distribution of the [^68Ga]Ga-NO2A-[Nle13]-Col for the subsequent extrapolation and calculation of human dosimetry. The male and female animals were administered into the tail vein with, respectively, 2.3 ± 0.8 MBq and 1.4 ± 0.5 MBq, sacrificed at 5, 10, 30, 40, 60, and 120 min post administration, and the organs were harvested, weighted, and measured for their radioactivity content. Samples from the blood, heart, lung, liver, spleen, adrenal glands, kidneys, intestines with or without contents, muscle, testis, bone, brain, pancreas, urine bladder, and bone marrow were collected. To monitor radioactivity elimination and recovery, the radioactivity of the remaining carcass was also measured. The radioactivity measurements were corrected for decay and converted into standardized uptake values (SUVs, Table S2) according to Equation (2), wherein the radioactivity is expressed in MBq and the weight in grams:(2) SUV=Radioactivityorgan∗weightrat/Radioactivityinjected∗weightorgan
# [1] = female, 1.4 MBq, SUV bladder (UB)
# [2] = female, 1.4 MBq, SUV blood (BL)
# [3] = female, 1.4 MBq, SUV brain (BR)
# [4] = female, 1.4 MBq, SUV heart (HE)
# [5] = female, 1.4 MBq, SUV liver (LI)
# [6] = female, 1.4 MBq, SUV lungs (LU)
# [7] = female, 1.4 MBq, SUV muscle (MU)
# [8] = female, 1.4 MBq, SUV red bone marrow (BM)
# [9] = female, 1.4 MBq, SUV spleen (SP)
# [10] = female, SUV large intestine without content (INL-)
# [11] = female, SUV small intestine with its content (INS+)
smiles,measurement,setting,value
"CCCC[C@@H]1NC(=O)[C@H](C(C)C)NC(=O)[C@H](CCCNC(=N)N)NC(=O)CNC(=O)[C@@H]2CCCN2C(=O)[C@@H](NC(=O)COCCOCCNC(=O)CN2CCN(CC(=O)O)CCN(CC(=O)O)CC2)CSSC[C@@H](C(=O)O)NC(=O)[C@@H]2CCCN2C(=O)CNC(=O)[C@H](CCC(=O)O)NC(=O)[C@H](CC(=O)O)NC(=O)[C@H](CC(=O)O)NC(=O)CNC(=O)[C@H](CC(C)C)NC(=O)[C@H](Cc2c[nH]cn2)NC(=O)[C@H](CC(C)C)NC(=O)CNC(=O)[C@H](Cc2c[nH]cn2)NC1=O [[^68Ga]Ga-NO2A-[Nle^13]-Col, [^68Ga]Ga-NOTA-PEG2-c[CPGRVNleHGLHLGDDEGPC], metal not drawn] ({NOTA-AEEA}-CPGRV[Nle]HGLHLGDDEGPC-OH; disulfide 1-18)",SUV at 2 h,"SUV of adrenal glands, bone marrow and urinary bladder",< 0.25 SUV
same,SUV at 1 h,SUV of all vital organs,< 0.2 SUV
same,SUV at 2 h,SUV of the remainder of the organs,< 0.1 SUV
same,SUV at 2 h,"both sexes, SUV of most of the organs",< 0.25 SUV
same,SUV at 5 min,[1],4.88 SUV
same,SUV at 10 min,[1],6.96 SUV
same,SUV at 0.5 h,[1],5.83 SUV
same,SUV at 40 min,[1],0.843 SUV
same,SUV at 1 h,[1],1.08 SUV
same,SUV at 2 h,[1],0.321 SUV
same,SUV at 10 min,[2],1.42 SUV
same,SUV at 0.5 h,[2],0.497 SUV
same,SUV at 40 min,[2],0.432 SUV
same,SUV at 1 h,[2],0.217 SUV
same,SUV at 2 h,[2],0.0412 SUV
same,SUV at 5 min,"female, 1.4 MBq, SUV bone (BO)",0.391 SUV
same,SUV at 10 min,"female, 1.4 MBq, SUV bone (BO)",0.403 SUV
same,SUV at 0.5 h,"female, 1.4 MBq, SUV bone (BO)",0.179 SUV
same,SUV at 40 min,"female, 1.4 MBq, SUV bone (BO)",0.106 SUV
same,SUV at 1 h,"female, 1.4 MBq, SUV bone (BO)",0.064 SUV
same,SUV at 2 h,"female, 1.4 MBq, SUV bone (BO)",0.031 SUV
same,SUV at 5 min,[3],0.073 SUV
same,SUV at 10 min,[3],0.0964 SUV
same,SUV at 0.5 h,[3],0.0189 SUV
same,SUV at 40 min,[3],0.0174 SUV
same,SUV at 1 h,[3],0.0149 SUV
same,SUV at 2 h,[3],0.0062 SUV
same,SUV at 5 min,[4],0.741 SUV
same,SUV at 10 min,[4],0.68 SUV
same,SUV at 0.5 h,[4],0.207 SUV
same,SUV at 40 min,[4],0.18 SUV
same,SUV at 1 h,[4],0.104 SUV
same,SUV at 2 h,[4],0.026 SUV
same,SUV at 5 min,[5],0.438 SUV
same,SUV at 10 min,[5],0.452 SUV
same,SUV at 0.5 h,[5],0.171 SUV
same,SUV at 40 min,[5],0.147 SUV
same,SUV at 1 h,[5],0.114 SUV
same,SUV at 2 h,[5],0.0889 SUV
same,SUV at 5 min,[6],1.12 SUV
same,SUV at 10 min,[6],0.986 SUV
same,SUV at 0.5 h,[6],0.385 SUV
same,SUV at 40 min,[6],0.427 SUV
same,SUV at 1 h,[6],0.276 SUV
same,SUV at 2 h,[6],0.0631 SUV
same,SUV at 5 min,[7],0.514 SUV
same,SUV at 10 min,[7],0.295 SUV
same,SUV at 0.5 h,[7],0.214 SUV
same,SUV at 40 min,[7],0.0802 SUV
same,SUV at 1 h,[7],0.0488 SUV
same,SUV at 2 h,[7],0.0213 SUV
same,SUV at 2 h,"female, 1.4 MBq, SUV ovarian (OV)",0.124 SUV
same,SUV at 5 min,[8],0.484 SUV
same,SUV at 10 min,[8],0.443 SUV
same,SUV at 0.5 h,[8],0.162 SUV
same,SUV at 40 min,[8],0.769 SUV
same,SUV at 1 h,[8],0.113 SUV
same,SUV at 2 h,[8],0.343 SUV
same,SUV at 5 min,[9],0.423 SUV
same,SUV at 10 min,[9],0.354 SUV
same,SUV at 0.5 h,[9],0.174 SUV
same,SUV at 40 min,[9],0.135 SUV
same,SUV at 1 h,[9],0.0938 SUV
same,SUV at 5 min,"female, SUV adrenals (AD)",0.724 SUV
same,SUV at 10 min,"female, SUV adrenals (AD)",1.29 SUV
same,SUV at 0.5 h,"female, SUV adrenals (AD)",0.0127 SUV
same,SUV at 40 min,"female, SUV adrenals (AD)",0.25 SUV
same,SUV at 1 h,"female, SUV adrenals (AD)",0.198 SUV
same,SUV at 2 h,"female, SUV adrenals (AD)",0.128 SUV
same,SUV at 5 min,"female, SUV blood (BL)",2.06 SUV
same,SUV at 5 min,"female, SUV kidneys (KI)",12.1 SUV
same,SUV at 10 min,"female, SUV kidneys (KI)",11.3 SUV
same,SUV at 0.5 h,"female, SUV kidneys (KI)",6.32 SUV
same,SUV at 40 min,"female, SUV kidneys (KI)",12.9 SUV
same,SUV at 1 h,"female, SUV kidneys (KI)",12.8 SUV
same,SUV at 2 h,"female, SUV kidneys (KI)",9.08 SUV
same,SUV at 5 min,[10],0.569 SUV
same,SUV at 10 min,[10],0.91 SUV
same,SUV at 0.5 h,[10],0.193 SUV
same,SUV at 40 min,[10],0.211 SUV
same,SUV at 1 h,[10],0.103 SUV
same,SUV at 2 h,[10],0.046 SUV
same,SUV at 5 min,"female, SUV ovarian (OV)",0.927 SUV
same,SUV at 10 min,"female, SUV ovarian (OV)",1.87 SUV
same,SUV at 0.5 h,"female, SUV ovarian (OV)",0.341 SUV
same,SUV at 40 min,"female, SUV ovarian (OV)",0.335 SUV
same,SUV at 1 h,"female, SUV ovarian (OV)",0.159 SUV
same,SUV at 5 min,"female, SUV pancreas (PA)",0.439 SUV
same,SUV at 10 min,"female, SUV pancreas (PA)",0.361 SUV
same,SUV at 0.5 h,"female, SUV pancreas (PA)",0.164 SUV
same,SUV at 40 min,"female, SUV pancreas (PA)",0.0609 SUV
same,SUV at 1 h,"female, SUV pancreas (PA)",0.0659 SUV
same,SUV at 2 h,"female, SUV pancreas (PA)",0.029 SUV
same,SUV at 5 min,[11],0.436 SUV
same,SUV at 10 min,[11],0.558 SUV
same,SUV at 0.5 h,[11],0.277 SUV
same,SUV at 40 min,[11],0.165 SUV
same,SUV at 1 h,[11],0.129 SUV
same,SUV at 2 h,[11],0.0343 SUV
